3 molecules from publication PMC10397247 can be followed below.

In one experiment the target is T1, P2mSN.
T1 chain: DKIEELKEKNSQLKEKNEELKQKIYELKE
Briefly: two-hybrid library CCNG1.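 Note: natural log of median RNA to DNA barcode read ratio; higher means stronger binding.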

A further experiment concerns the target T2, P8mSN.
T2 chain: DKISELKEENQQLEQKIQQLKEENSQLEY
Description: two-hybrid library CCNG1.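 Note: natural log of median RNA to DNA barcode read ratio; higher means stronger binding.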

For the next experiment, the target named is T3, P4mSN.
T3 chain: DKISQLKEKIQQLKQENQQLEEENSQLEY
Description: two-hybrid library CCNG1.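 Note: natural log of median RNA to DNA barcode read ratio; higher means stronger binding.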

For another experiment, the target named is T4, P7mSN.
T4 chain: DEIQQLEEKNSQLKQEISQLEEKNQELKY
Description: two-hybrid library CCNG1.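 Note: natural log of median RNA to DNA barcode read ratio; higher means stronger binding.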

A further experiment deals with T5, P6mSN.
T5 chain: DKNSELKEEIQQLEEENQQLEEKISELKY
Briefly: two-hybrid library CCNG1.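 Note: natural log of median RNA to DNA barcode read ratio; higher means stronger binding.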

The target of another experiment is T6, P9mSN.
T6 chain: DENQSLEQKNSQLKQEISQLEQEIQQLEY
Briefly: two-hybrid library CCNG1.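 Note: natural log of median RNA to DNA barcode read ratio; higher means stronger binding.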

A further experiment has as its target T7, P5mSN.
T7 chain: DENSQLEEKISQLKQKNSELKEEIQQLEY
Description: two-hybrid library CCNG1.

The target of another experiment is T8, P1mSN.
T8 chain: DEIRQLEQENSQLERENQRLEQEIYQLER
Description: two-hybrid library CCNG1.

The next experiment has as its target T9, P3mSN.
T9 chain: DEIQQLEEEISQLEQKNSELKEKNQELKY
Description: two-hybrid library CCNG1.

The target of another experiment is T10, 4H2947-AA.
T10 chain: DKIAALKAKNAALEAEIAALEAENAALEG
Description: two-hybrid library CCmax. The following applies: mean of both orientations.

The next experiment deals with T11, 4H380-AA.
T11 chain: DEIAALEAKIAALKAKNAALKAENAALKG
Description: two-hybrid library CCmax. Conditions: mean of both orientations.

The next experiment has as its target T12, 4H483-AA.
T12 chain: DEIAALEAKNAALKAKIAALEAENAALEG
Description: two-hybrid library CCmax. Conditions: mean of both orientations.

In another experiment the target is T13, 4H2903-AA.
T13 chain: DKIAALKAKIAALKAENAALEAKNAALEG
Description: two-hybrid library CCmax. Conditions: mean of both orientations.

The target in another experiment is T14, 4H3629-AA.
T14 chain: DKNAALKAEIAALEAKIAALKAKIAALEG
Description: two-hybrid library CCmax. Conditions: mean of both orientations.

For a further experiment, the target named is T15, 4H2580-AA.
T15 chain: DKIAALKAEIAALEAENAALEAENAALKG
Briefly: two-hybrid library CCmax. The following applies: mean of both orientations.

In the next experiment the target is T16, 4H2621-AA.
T16 chain: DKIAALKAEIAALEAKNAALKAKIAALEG
Briefly: two-hybrid library CCmax. Conditions: mean of both orientations.

The target in another experiment is T17, 4H1360-AA.
T17 chain: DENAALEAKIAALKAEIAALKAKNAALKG
Description: two-hybrid library CCmax. Conditions: mean of both orientations.

For the next experiment, the target named is T18, 4H2699-AA.
T18 chain: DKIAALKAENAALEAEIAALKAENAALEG
Description: two-hybrid library CCmax. Conditions: mean of both orientations.

The next experiment has as its target T19, 4H432-AA.
T19 chain: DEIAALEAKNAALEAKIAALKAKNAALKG
Description: two-hybrid library CCmax. Conditions: mean of both orientations.

For the next experiment, the target named is T20, 4H3777-AA.
T20 chain: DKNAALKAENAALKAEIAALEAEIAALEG
Briefly: two-hybrid library CCmax. The following applies: mean of both orientations.

A further experiment deals with T21, 4H446-AA.
T21 chain: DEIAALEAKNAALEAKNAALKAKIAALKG
Briefly: two-hybrid library CCmax. Conditions: mean of both orientations.

For another experiment, the target named is T22, P2-AA-1HGe-A.
T22 chain: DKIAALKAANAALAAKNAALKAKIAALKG
Description: two-hybrid library CCmax.

The target of another experiment is T23, 4H2774-AA.
T23 chain: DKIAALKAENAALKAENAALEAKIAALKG
Description: two-hybrid library CCmax. The following applies: mean of both orientations.

For a further experiment, the target named is T24, 4H1913-AA.
T24 chain: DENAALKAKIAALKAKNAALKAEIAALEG
Briefly: two-hybrid library CCmax. Conditions: mean of both orientations.

For a further experiment, the target named is T25, 4H3619-AA.
T25 chain: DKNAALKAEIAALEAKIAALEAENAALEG
Description: two-hybrid library CCmax. Conditions: mean of both orientations.

For the next experiment, the target named is T26, 4H464-AA.
T26 chain: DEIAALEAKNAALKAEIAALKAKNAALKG
Briefly: two-hybrid library CCmax. Conditions: mean of both orientations.

For another experiment, the target named is T27, 4H3595-AA.
T27 chain: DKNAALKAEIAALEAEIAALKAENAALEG
Briefly: two-hybrid library CCmax. The following applies: mean of both orientations.

In the next experiment the target is T28, 4H2728-AA.
T28 chain: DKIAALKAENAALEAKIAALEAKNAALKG
Description: two-hybrid library CCmax. Conditions: mean of both orientations.

The target in a further experiment is T29, 4H3974-AA.
T29 chain: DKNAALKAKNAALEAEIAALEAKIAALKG
Description: two-hybrid library CCmax. Conditions: mean of both orientations.

The target of another experiment is T30, 4H324-AA.
T30 chain: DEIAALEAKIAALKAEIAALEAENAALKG
Briefly: two-hybrid library CCmax. Conditions: mean of both orientations.

Another experiment addresses T31, 4H2961-AA.
T31 chain: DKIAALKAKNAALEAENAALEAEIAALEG
Description: two-hybrid library CCmax. Conditions: mean of both orientations.

The target in the next experiment is T32, 4H1593-AA.
T32 chain: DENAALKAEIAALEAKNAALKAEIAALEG
Description: two-hybrid library CCmax. Conditions: mean of both orientations.

The next experiment concerns the target T33, 4H249-AA.
T33 chain: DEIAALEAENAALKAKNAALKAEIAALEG
Briefly: two-hybrid library CCmax. The following applies: mean of both orientations.

The next experiment has as its target T34, 4H2604-AA.
T34 chain: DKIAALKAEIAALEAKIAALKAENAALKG
Briefly: two-hybrid library CCmax. Conditions: mean of both orientations.

A further experiment has as its target T35, 4H1454-AA.
T35 chain: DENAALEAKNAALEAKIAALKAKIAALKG
Briefly: two-hybrid library CCmax. Conditions: mean of both orientations.

For another experiment, the target named is T36, 4H3939-AA.
T36 chain: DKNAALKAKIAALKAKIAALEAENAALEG
Description: two-hybrid library CCmax. The following applies: mean of both orientations.

A further experiment concerns the target T37, 4H1384-AA.
T37 chain: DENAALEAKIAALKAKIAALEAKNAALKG
Briefly: two-hybrid library CCmax. Conditions: mean of both orientations.

For another experiment, the target named is T38, 4H2760-AA.
T38 chain: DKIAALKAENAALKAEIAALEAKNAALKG
Description: two-hybrid library CCmax. The following applies: mean of both orientations.

The target of the next experiment is T39, 4H3049-AA.
T39 chain: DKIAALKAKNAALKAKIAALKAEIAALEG
Briefly: two-hybrid library CCmax. The following applies: mean of both orientations.

The next experiment has as its target T40, 4H341-AA.
T40 chain: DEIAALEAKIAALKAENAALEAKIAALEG
Description: two-hybrid library CCmax. Conditions: mean of both orientations.

Another experiment addresses T41, 4H3782-AA.
T41 chain: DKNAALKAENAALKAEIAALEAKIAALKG
Briefly: two-hybrid library CCmax. Conditions: mean of both orientations.

The target of the next experiment is T42, 4H3449-AA.
T42 chain: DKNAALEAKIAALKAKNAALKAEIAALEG
Briefly: two-hybrid library CCmax. Conditions: mean of both orientations.

A further experiment has as its target T43, 4H1558-AA.
T43 chain: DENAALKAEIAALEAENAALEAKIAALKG
Description: two-hybrid library CCmax. Conditions: mean of both orientations.

The next experiment addresses T44, 4H3969-AA.
T44 chain: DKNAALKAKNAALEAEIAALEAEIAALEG
Briefly: two-hybrid library CCmax. Conditions: mean of both orientations.

In another experiment the target is T45, 4H3915-AA.
T45 chain: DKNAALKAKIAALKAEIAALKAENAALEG
Briefly: two-hybrid library CCmax. Conditions: mean of both orientations.

A further experiment addresses T46, 4H3129-AA.
T46 chain: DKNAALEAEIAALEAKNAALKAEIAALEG
Description: two-hybrid library CCmax. The following applies: mean of both orientations.

Another experiment addresses T47, 4H3094-AA.
T47 chain: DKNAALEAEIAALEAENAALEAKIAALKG
Briefly: two-hybrid library CCmax. The following applies: mean of both orientations.

The target of the next experiment is T48, 4H235-AA.
T48 chain: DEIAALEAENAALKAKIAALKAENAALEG
Description: two-hybrid library CCmax. The following applies: mean of both orientations.

The target in the next experiment is T49, 4H3414-AA.
T49 chain: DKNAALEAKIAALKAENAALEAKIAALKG
Description: two-hybrid library CCmax. Conditions: mean of both orientations.

A further experiment has as its target T50, 4H63-AA.
T50 chain: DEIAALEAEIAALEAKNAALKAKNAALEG
Description: two-hybrid library CCmax. The following applies: mean of both orientations.

In another experiment the target is T51, 4H1878-AA.
T51 chain: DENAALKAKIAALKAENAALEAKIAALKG
Briefly: two-hybrid library CCmax. The following applies: mean of both orientations.

The target in a further experiment is T52, 4H1449-AA.
T52 chain: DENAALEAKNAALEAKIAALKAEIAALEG
Briefly: two-hybrid library CCmax. Conditions: mean of both orientations.

A further experiment concerns the target T53, P4bH1.
T53 chain: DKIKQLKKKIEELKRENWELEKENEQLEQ
Description: two-hybrid library CCNG1.

Turning to DEIRQLEQENSQLERENQRLEQEIYQLER [P1mSN], the interaction score with P2mSN is 1.73; with P8mSN it was -1.17; with P4mSN, -1.09; with P7mSN it was -1.01; in the experiment with P6mSN it was -0.582; with P9mSN it was -2.07. The interaction score in the experiment with P5mSN is -1.04; with P1mSN, -1.23; with P3mSN, -1.95.

DENAALEAKIAALKAEIAALEAKIAALEG [4H1349-AA]: the interaction score is -1.49 with 4H2947-AA; -0.754 with 4H380-AA; -1.07 with 4H483-AA; -0.278 with 4H2903-AA; 2.08 in the experiment with 4H3629-AA; -0.799 with 4H2580-AA. Besides, the interaction score is 2.18 with 4H2621-AA; 0.392 in the experiment with 4H1360-AA; -1.39 in the experiment with 4H2699-AA; -1.21 in the experiment with 4H432-AA; -0.808 with 4H3777-AA; -1.37 with 4H446-AA. In addition, the interaction score is -1.79 with P2-AA-1HGe-A; -2.01 with 4H2774-AA; -0.124 with 4H1913-AA; 0.504 with 4H3619-AA; -0.554 with 4H464-AA; 1.05 in the experiment with 4H3595-AA. The interaction score with 4H2728-AA is -1.04; in the experiment with 4H3974-AA, 0.171; with 4H324-AA it was 1.84; with 4H2961-AA, -2.4; in the experiment with 4H1593-AA it was 0.813; in the experiment with 4H249-AA, -2.14. Also, the interaction score is 1.42 in the experiment with 4H2604-AA; -0.224 with 4H1454-AA; 0.491 with 4H3939-AA; 1.03 with 4H1384-AA; -0.562 with 4H2760-AA; -0.0176 in the experiment with 4H3049-AA. Besides, the interaction score with 4H341-AA was -0.142; with 4H3782-AA, 0.414; with 4H3449-AA, -0.531; in the experiment with 4H1558-AA, -0.218; with 4H3969-AA, -1.13; with 4H3915-AA it was 0.312. In addition, the interaction score was 0.123 with 4H3129-AA; -0.703 with 4H3094-AA; -2.02 with 4H235-AA; -0.92 with 4H3414-AA; -0.724 with 4H63-AA; -0.906 in the experiment with 4H1878-AA. In addition, the interaction score with 4H1449-AA was -0.154.

For the molecule DKIEELKEKNSQLKEKNEELKQKIYELKE [P2mSN], the interaction score with P2mSN is -1.97; in the experiment with P4bH1, -1.37; with P8mSN it was -1.26; with P4mSN it was -0.0295; in the experiment with P7mSN it was -0.243; with P6mSN, -0.752. The interaction score is -1.13 in the experiment with P9mSN, -0.724 in the experiment with P5mSN and -0.831 with P3mSN.
